Results on 9 molecules are retold here after US20250011455A1 (HANGZHOU BANGSHUN PHARMACEUTICAL, published 2025).

Assay [1] addresses T1, hCD39-ECD-His (ACRO, CD9-H52H4) (human, UniProt P49961 38-478).
T1 construct: extracellular domain; Bought protein; also called recombinant antigen; target antigen; not shown: His tag
T1 sequence (looked up): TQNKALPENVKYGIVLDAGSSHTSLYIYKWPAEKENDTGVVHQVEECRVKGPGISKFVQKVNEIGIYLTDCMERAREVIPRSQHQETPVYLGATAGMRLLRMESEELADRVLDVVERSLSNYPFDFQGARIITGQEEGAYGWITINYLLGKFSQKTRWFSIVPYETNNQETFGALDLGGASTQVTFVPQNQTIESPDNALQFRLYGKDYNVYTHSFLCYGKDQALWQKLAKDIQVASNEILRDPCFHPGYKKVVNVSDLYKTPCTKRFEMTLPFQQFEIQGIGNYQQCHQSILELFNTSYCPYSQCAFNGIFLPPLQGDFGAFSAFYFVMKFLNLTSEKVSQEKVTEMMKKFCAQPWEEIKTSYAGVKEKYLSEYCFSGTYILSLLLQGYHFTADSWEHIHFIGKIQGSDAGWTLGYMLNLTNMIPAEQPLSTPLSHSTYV
As to the kind of experiment: SPR, Biacore 8K, antibody captured by anti-human IgG Fc, hCD39-ECD-His as analyte. As to the method:
The binding kinetics between humanized antibodies and a recombinant antigen were tested using Biacore 8K (GE, biomolecule interaction analyzer). Specifically, an anti-human IgG Fc antibody was directly immobilized on a biosensor chip to capture a test antibody. The antigen hCD39-ECD-His (ACRO, CD9-H52H4) was used as the mobile phase, and 7 concentration gradients (at an initial concentration of 200 nM, 2-fold gradient dilution) were used. The association rate constant ka (M⁻¹ s⁻¹) and dissociation rate constant kd (s⁻¹) were determined. Then, based on the formula KD=kd/ka and the kinetic rate constants, the equilibrium dissociation constant KD (M) of the reaction between the antibody and the relevant target protein was calculated. The humanized antibodies of the present invention maintained high affinity of the chimeric antibody F03 for the target antigen.
A general note: Surface plasmon resonance follows binding to a sensor surface in real time, without labels.

Assay [2] deals with T2, human CD39 on the cell surface (human, UniProt P49961 1-510).
T2 sequence (looked up): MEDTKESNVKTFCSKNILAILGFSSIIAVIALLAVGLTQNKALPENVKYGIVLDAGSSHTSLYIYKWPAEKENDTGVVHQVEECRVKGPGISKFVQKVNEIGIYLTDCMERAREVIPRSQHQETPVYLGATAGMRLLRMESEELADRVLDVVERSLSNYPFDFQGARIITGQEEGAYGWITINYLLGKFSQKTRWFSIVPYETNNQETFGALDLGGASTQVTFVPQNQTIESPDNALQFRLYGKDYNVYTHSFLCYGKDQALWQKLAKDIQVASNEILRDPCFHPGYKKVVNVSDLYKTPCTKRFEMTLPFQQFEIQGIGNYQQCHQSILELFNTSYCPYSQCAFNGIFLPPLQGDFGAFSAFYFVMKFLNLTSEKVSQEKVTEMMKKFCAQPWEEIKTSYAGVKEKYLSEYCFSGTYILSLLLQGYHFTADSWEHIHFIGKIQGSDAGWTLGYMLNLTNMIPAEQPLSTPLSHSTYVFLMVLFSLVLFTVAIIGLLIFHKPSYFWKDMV
As to the kind of experiment: cell-based or functional assay.

Assay [3] concerns the target T2, human CD39 on the cell surface. The experiment in a line: FACS on SK-MEL-28 cells (natural human CD39).
Assay [4] has the same target. As to the kind of experiment: FACS on CHOK1-hCD39 cells, FITC-labelled goat anti-human IgG Fc secondary antibody, mean fluorescence intensity (MFI). The protocol:
The binding of the chimeric antibody F03 of the present invention to CD39 on the cell membrane surface was assayed by FACS. Specifically, CHOK1-hCD39 cells were collected and added to a 96-well plate at 1-3×10⁵ cells/well, the serially diluted chimeric antibody F03 (diluted with 1×PBS to 16.7 μg/mL as an initial concentration, 3-fold gradient dilution) was added, and the mixture was incubated at 4° C. for 30 min; after washing with PBS, an FITC-labeled goat anti-human IgG Fc secondary antibody (Jackson Immunoresearch, 109095008) diluted at 1:200 was added, and the resulting mixture was incubated at 4° C. for 30 min; after washing with PBS, the cell fluorescence intensity was detected using an FACS instrument (Beckman). Data were processed by GraphPad software.

B1: humanized antibody F03-12 (antibody, human IgG4 S228P, kappa, V domains shown)
VH: QVQLVQSGAEVKKPGASVKVSCKASGYTFTNYWMYWVRQAPGQGLEWMGRIAPSSGATKYNEKFKNRVTLTVDTSISTAYMELSRLRSDDTAVYYCARSGIYYDYDWFFDVWGQGTTVTVSS
VL: DIQMTQSPSSLSASVGDRVTITCKASQDINKYIGWYQQKPGKAPKLLIHYTSTLQPGVPSRFSGSGSGRDYTFTISSLQPEDIATYYCLQYHALLFTFGQGTKLEIKR
notes: Human IgG4 (S228P) and human kappa constant regions
In general, Kd refers to a measure of binding affinity in units of concentration. Higher therefore signals a looser complex. In general, koff refers to the first-order rate constant of dissociation. A high value points to a short-lived complex. In general, kon refers to the second-order rate constant of association. The low end stands for slower complex formation, the high end for faster complex formation. In general, EC50 refers to the concentration giving half of the maximal effect. The low end stands for greater potency, the high end for weaker potency. As to B1, in assay [1], the Kd stood at 3.68 nM, the koff was 0.000331 s⁻¹ and the kon amounted to 89900 M⁻¹ s⁻¹. Also, in assay [2], the “Enzymatic activity inhibition (EC50 nM)” value came to 0.06 nM. The EC50 in assay [3] was 1.12 nM.

B2: humanized antibody F03-8 (antibody, human IgG4 S228P, kappa, V domains shown)
VH: QVQLVQSGAEVKKPGASVKVSCKASGYTFTNYWMYWVRQAPGQGLEWIGRIAPSSGATKYNEKFKNRATLTVDTSISTAYMELSRLRSDDTAVYYCARSGIYYDYDWFFDVWGQGTTVTVSS
VL: DIQMTQSPSSLSASVGDRVTITCKASQDINKYIGWYQQKPGKAPKLLIHYTSTLQPGVPSRFSGSGSGTDFTFTISSLQPEDIATYYCLQYHALLFTFGQGTKLEIKR
notes: as for B1
B2: the “Enzymatic activity inhibition (EC50 nM)” value in assay [2] was 0.06 nM. For the same molecule, a half-maximal response in assay [3] (EC50) required 1 nM.

B3: humanized antibody F03-11 (antibody, human IgG4 S228P, kappa, V domains shown)
VH: QVQLVQSGAEVKKPGASVKVSCKASGYTFTNYWMYWVRQAPGQGLEWMGRIAPSSGATKYNEKFKNRVTMTRDTSISTAYMELSRLRSDDTAVYYCARSGIYYDYDWFFDVWGQGTTVTVSS
VL: DIQMTQSPSSLSASVGDRVTITCKASQDINKYIGWYQQKPGKAPKLLIHYTSTLQPGVPSRFSGSGSGRDYTFTISSLQPEDIATYYCLQYHALLFTFGQGTKLEIKR
notes: as for B1
In the case of B3, in assay [1], binding was characterised by a dissociation constant (Kd) of 4.2 nM, the koff turned out to be 0.000336 s⁻¹ and the kon was determined as 80100 M⁻¹ s⁻¹. The “Enzymatic activity inhibition (EC50 nM)” value in assay [2] was found to be 0.03 nM. Moreover, in assay [3], the EC50 was 0.94 nM.

B4: humanized antibody F03-15 (antibody, human IgG4 S228P, kappa)
heavy: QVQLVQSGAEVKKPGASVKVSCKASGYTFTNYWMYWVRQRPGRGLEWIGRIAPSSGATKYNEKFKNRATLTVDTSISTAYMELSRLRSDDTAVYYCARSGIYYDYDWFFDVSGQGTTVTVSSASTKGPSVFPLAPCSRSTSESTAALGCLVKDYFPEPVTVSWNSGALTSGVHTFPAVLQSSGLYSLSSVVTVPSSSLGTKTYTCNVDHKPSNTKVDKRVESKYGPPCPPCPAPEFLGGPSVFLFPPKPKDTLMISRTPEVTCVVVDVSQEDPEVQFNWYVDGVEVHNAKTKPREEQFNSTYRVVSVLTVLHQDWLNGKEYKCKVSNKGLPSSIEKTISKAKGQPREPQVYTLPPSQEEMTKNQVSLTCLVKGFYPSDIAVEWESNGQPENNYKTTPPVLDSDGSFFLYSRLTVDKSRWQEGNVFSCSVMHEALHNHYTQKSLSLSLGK
light: DIQMTQSPSSLSASVGDRVTITCKASQDINKYIGWYQQKPGKAPKLLIHYTSTLQPGVPSRFSGSGSGRDYTFTISSLQPEDIATYYCLQYHALLFTFGQGTKLEIKRTVAAPSVFIFPPSDEQLKSGTASVVCLLNNFYPREAKVQWKVDNALQSGNSQESVTEQDSKDSTYSLSSTLTLSKADYEKHKVYACEVTHQGLSSPVTKSFNRGEC
notes: as for B1
In assay [1], B4 had a Kd of 3.33 nM, an off-rate constant (koff) of 0.000176 s⁻¹ and an on-rate constant (kon) of 52800 M⁻¹ s⁻¹. Further, the “Enzymatic activity inhibition (EC50 nM)” value in assay [2] turned out to be 0.02 nM. In assay [3], this molecule had an EC50 of 1.11 nM.

B5: humanized antibody F03-6 (antibody, human IgG4 S228P, kappa, V domains shown)
VH: QVQLVQSGAEVKKPGASVKVSCKASGYTFTNYWMYWVRQAPGQGLEWMGRIAPSSGATKYNEKFKNRVTMTRDTSISTAYMELSRLRSDDTAVYYCARSGIYYDYDWFFDVWGQGTTVTVSS
VL: DIQMTQSPSSLSASVGDRVTITCKASQDINKYIGWYQQKPGKAPKLLIHYTSTLQPGVPSRFSGSGSGTDFTFTISSLQPEDIATYYCLQYHALLFTFGQGTKLEIKR
notes: Human IgG4 (S228P) heavy chain constant region and human kappa constant region
With B5, the “Enzymatic activity inhibition (EC50 nM)” value in assay [2] worked out at 0.09 nM. The molecule further displayed a concentration for a half-maximal effect (EC50) in assay [3] of 1.27 nM.

B6: humanized antibody F03-13 (antibody, human IgG4 S228P, kappa, V domains shown)
VH: QVQLVQSGAEVKKPGASVKVSCKASGYTFTNYWMYWVRQAPGQGLEWIGRIAPSSGATKYNEKFKNRATLTVDTSISTAYMELSRLRSDDTAVYYCARSGIYYDYDWFFDVWGQGTTVTVSS
VL: DIQMTQSPSSLSASVGDRVTITCKASQDINKYIGWYQQKPGKAPKLLIHYTSTLQPGVPSRFSGSGSGRDYTFTISSLQPEDIATYYCLQYHALLFTFGQGTKLEIKR
notes: as for B1
As for B6, the “Enzymatic activity inhibition (EC50 nM)” value in assay [2] was found to be 0.09 nM. For the same molecule, the midpoint of the response in assay [3], the EC50, lay at 1 nM.

B7: humanized antibody F03-7 (antibody, human IgG4 S228P, kappa, V domains shown)
VH: QVQLVQSGAEVKKPGASVKVSCKASGYTFTNYWMYWVRQAPGQGLEWMGRIAPSSGATKYNEKFKNRVTLTVDTSISTAYMELSRLRSDDTAVYYCARSGIYYDYDWFFDVWGQGTTVTVSS
VL: DIQMTQSPSSLSASVGDRVTITCKASQDINKYIGWYQQKPGKAPKLLIHYTSTLQPGVPSRFSGSGSGTDFTFTISSLQPEDIATYYCLQYHALLFTFGQGTKLEIKR
notes: as for B1
As to B7, the “Enzymatic activity inhibition (EC50 nM)” value in assay [2] was found to be 0.15 nM. Further, the EC50 in assay [3] amounted to 0.89 nM.

B8: humanized antibody F03-14 (antibody, human IgG4 S228P, kappa)
heavy: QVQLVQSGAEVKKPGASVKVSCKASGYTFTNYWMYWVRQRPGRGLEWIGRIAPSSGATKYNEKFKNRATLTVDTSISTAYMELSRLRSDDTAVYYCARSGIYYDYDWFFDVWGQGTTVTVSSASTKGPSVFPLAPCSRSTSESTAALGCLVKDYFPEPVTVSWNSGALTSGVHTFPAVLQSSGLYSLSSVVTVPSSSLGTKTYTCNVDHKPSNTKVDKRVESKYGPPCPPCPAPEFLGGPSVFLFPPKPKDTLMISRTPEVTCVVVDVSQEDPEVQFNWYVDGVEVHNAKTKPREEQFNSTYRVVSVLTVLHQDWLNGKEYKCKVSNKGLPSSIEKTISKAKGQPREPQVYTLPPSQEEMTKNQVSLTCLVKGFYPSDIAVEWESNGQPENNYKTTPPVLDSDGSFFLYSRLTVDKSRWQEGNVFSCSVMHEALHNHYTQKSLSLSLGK
light: DIQMTQSPSSLSASVGDRVTITCKASQDINKYIGWYQQKPGKAPKLLIHYTSTLQPGVPSRFSGSGSGRDYTFTISSLQPEDIATYYCLQYHALLFTFGQGTKLEIKRTVAAPSVFIFPPSDEQLKSGTASVVCLLNNFYPREAKVQWKVDNALQSGNSQESVTEQDSKDSTYSLSSTLTLSKADYEKHKVYACEVTHQGLSSPVTKSFNRGEC
notes: as for B1
In the case of B8, in assay [1], the dissociation constant Kd was 4.43 nM, the koff worked out at 0.00031 s⁻¹ and the association rate constant (kon) worked out at 69800 M⁻¹ s⁻¹. The “Enzymatic activity inhibition (EC50 nM)” value in assay [2] was determined as 0.05 nM. It took 0.79 nM to reach a half-maximal effect in assay [3] (EC50).

B9: chimeric antibody F03 (antibody, human IgG4 S228P, kappa, V domains shown)
VH: QVQLQQPGAELVKPGASVKLSCKTSGYTFTNYWMYWVKHRPGRGLEWIGRIAPSSGATKYNEKFKNKATLTVDKPSSTAYMQLSSLTSEDSAVYYCARSGIYYDYDWFFDVSGTGTTVTVSS
VL: DIQMTQSPSSLSASLGGKVTITCKASQDINKYIGWYQHAPGKGPRLLIHYTSTLQPGIPSRFSGSGSGRDYSLSISNLEPEDIATYYCLQYHALLFTFGSGTKLELKR
notes: Variable regions of murine mF03 on human IgG4 (S228P) and human kappa constant regions; expressed in CHO-S cells
In assay [1], B9 had a dissociation constant Kd of 2.67 nM, a koff of 0.000252 s⁻¹ and an association rate constant (kon) of 94300 M⁻¹ s⁻¹. Further, the “Enzymatic activity inhibition (EC50 nM)” value in assay [2] turned out to be 0.09 nM. In assay [3], this molecule gave an EC50 of 2.07 nM. The same molecule registered an EC50 in assay [4] of 2.19 µg/mL.
